This note sets out measurements from PMC9088798, “An Approach to Derive Functional Peptide Inhibitors of Transcription Factor Activity” (JACS Au, 2022).

For the series, the system named is WT-mDHFR. The series can be described thus: DHFR activity assay (NADPH turnover at 340 nm), WT-mDHFR. The settings on record: 100 nM WT-mDHFR, 60 µM NADPH, 50 µM DHF, no inhibitor; absorbance 340 nm; first 2.5 min, blank subtracted; average of triplicate experiments, one SD. Format: biochemical, murine. Here is the method: (A) Fifteen TRE sites were introduced into the mDHFR gene (2 silent and 13 substitutions) to allow for a cJun-induced transcriptional block. […] Change in absorbance at 340 nm was measured to determine the rate of NADPH turnover by (B) WT-mDHFR and (C) TRE-mDHFR with or without the substrate DHF. […] Specific activity was calculated from the linear initial rate (first 2.5 min for WT-mDHFR, first 10 min for TRE-mDHFR; +NADPH only reaction blank subtracted). Data are averages from triplicate experiments with errors shown as one standard deviation.
Jupiter Proteo column (4-μm particle size, 90 Å pore size, 250 × 10 mm; Phenomenex) using a water:acetonitrile gradient (0.1% TFA). Peptides without a SUMO tag, were concentrated after Histrap elution and HPLC purified. […]
or Mtx (1 µM in reaction). Reactions were initiated by the addition of DHF (50 µM in reaction plus a blank reaction with no DHF) and the absorbance at 340 nm of samples was measured using a Varian Cary 50 UV-Vis spectrophotometer. The specific activity (∆OD/minsample― ∆OD/minblank) was calculated using the following equation. Specific activity = 12.3× mg protein Library Construction and TBS Assay: Library inserts were produced using PCR fill-in reactions from synthesised primers (Sigma) with degenerate codons at the desired positions to produce the correct residue options. […]

B1: WT-mDHFR: wild-type murine dihydrofolate reductase, 6xHis-tagged (protein, UniProt P00375 2-187, looked up)
Dihydrofolate reductase: VRPLNCIVAVSQNMGIGKNGDLPWPPLRNEFKYFQRMTTTSSVEGKQNLVIMGRKTWFSIPEKNRPLKDRINIVLSRELKEPPRGAHFLAKSLDDALRLIEQPELASKVDMVWIVGGSSVYQEAMNQPGHLRLFVTRIMQEFESDTFFPEIDLGKYKLLPEYPGVLSEVQEEKGIKYKFEVYEKKD
modifications: 6xHis tag
notes: wild-type murine dihydrofolate reductase, 6xHis-tagged
On to B1, for which the “Specific activity, +NADPH+DHF” value turned out to be 0.263 ± 0.002 μmol / min / mg protein.
